In assay [1] the target is T1, purified PPARδ ligand-binding domain (LBD), Cy5-labelled (human, Cy5 fluorophore (NHS) on lysine amines).
T1 chain: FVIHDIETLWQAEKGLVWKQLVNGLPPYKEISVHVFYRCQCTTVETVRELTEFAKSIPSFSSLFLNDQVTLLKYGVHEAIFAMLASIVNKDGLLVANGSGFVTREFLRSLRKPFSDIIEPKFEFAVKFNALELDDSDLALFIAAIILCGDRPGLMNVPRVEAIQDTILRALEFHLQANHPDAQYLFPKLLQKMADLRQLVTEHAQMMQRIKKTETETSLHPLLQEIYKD

The target in assay [2] is T2, purified full-length PPARδ, Cy5-labelled (human, UniProt Q03181 1-441, Cy5 fluorophore (NHS) on lysine amines).
T2 construct: Full-length PPARδ in PSMT3 vector; also called FL-PPARδ; full-length (FL) PPARδ; source: E. coli BL21 DE3, purified (IMAC, Capto S and Capto Q, Superdex 75 SEC)
T2 sequence (looked up): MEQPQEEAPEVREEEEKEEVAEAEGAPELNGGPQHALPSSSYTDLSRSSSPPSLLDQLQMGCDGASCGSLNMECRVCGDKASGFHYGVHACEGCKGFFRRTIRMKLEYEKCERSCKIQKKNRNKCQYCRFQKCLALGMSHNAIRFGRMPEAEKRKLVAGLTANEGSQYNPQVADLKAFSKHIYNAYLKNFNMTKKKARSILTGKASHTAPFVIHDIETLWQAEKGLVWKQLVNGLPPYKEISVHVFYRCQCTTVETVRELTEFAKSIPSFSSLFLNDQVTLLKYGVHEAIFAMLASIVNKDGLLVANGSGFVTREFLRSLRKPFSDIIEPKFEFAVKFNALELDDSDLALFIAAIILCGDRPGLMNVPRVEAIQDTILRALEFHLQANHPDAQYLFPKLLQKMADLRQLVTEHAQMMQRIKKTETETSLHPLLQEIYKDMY
The assay is described as follows: temperature related intensity change (TRIC); 50 nM Cy5-labelled FL-PPARδ or PPARδ LBD with LTPs (10 µM-610 pM), overnight at 4 °C; 20 mM Hepes pH 8.3, 200 mM NaCl, 5% glycerol, 0.05% tween-20, 0.5 mM TCEP; Dianthus NT.23 Pico. As to conditions: both partners purified.

The target in assay [3] is T3, full-length PPARδ, split nano-luciferase (nano-PCA) fusion (human, UniProt Q03181 1-441).
T3 construct: wild-type human PPARδ, printed as residues 1-470; The clones of the HEK293T screen are not described; also called FL-PPARδ; intact PPARδ; source: HEK293T (screen) and Huh7, transfected, in cells
T3 sequence (looked up): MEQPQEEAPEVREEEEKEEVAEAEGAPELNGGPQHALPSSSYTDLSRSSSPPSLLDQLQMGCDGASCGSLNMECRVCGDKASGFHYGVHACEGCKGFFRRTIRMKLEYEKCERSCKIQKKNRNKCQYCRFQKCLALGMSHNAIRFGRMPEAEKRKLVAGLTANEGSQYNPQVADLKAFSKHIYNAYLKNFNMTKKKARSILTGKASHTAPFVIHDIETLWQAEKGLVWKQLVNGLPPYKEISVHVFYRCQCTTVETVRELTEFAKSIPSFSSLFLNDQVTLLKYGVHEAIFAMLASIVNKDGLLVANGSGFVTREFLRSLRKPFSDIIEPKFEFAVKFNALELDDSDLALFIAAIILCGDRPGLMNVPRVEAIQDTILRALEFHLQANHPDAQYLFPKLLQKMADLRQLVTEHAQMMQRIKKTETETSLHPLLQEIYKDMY
The assay is described as follows: split reporter (BiFC, NanoBiT); nano-PCA in transfected Huh7 cells (100 ng/well of each fusion); fresh culture media or DMEM F-12 with 0.5% serum (mutant panel in 0.5% serum); signal normalized to the highest negative control. To be noted: partners not purified.

This note sets out measurements from PMC10182070, “Ligand dependent interaction between PC-TP and PPARδ mitigates diet-induced hepatic steatosis in male mice” (Nature Communications, 2023).

B1: purified PC-TP (natural protein, human)
chain: MELAAGSFSEEQFWEACAELQQPALAGADWQLLVETSGISIYRLLDKKTGLYEYKVFGVLEDCSPTLLADIYMDSDYRKQWDQYVKELYEQECNGETVVYWEVKYPFPMSNRDYVYLRQRRDLDMEGRKIHVILARSTSMPQLGERSGVIRVKQYKQSLAIESDGKKGSKVFMYYFDNPGGQIPSWLINWAAKNGVPNFLKDMARACQNYLKKT
notes: PC-TP coding region in pMCSG7; the structure of PC-TP solved here is PDB 7U9D; 0.01% soy lecithin was added to the cultures at induction; also called LTP; source: E. coli BL21 DE3, purified (IMAC, Superdex 75 SEC)
Turning to B1, the results for the dissociation constant (Kd) in assay [1] and in assay [2] were 4.23 µM and roughly 2.4 µM, respectively.

B2: PC-TP R78E, split nano-luciferase (nano-PCA) fusion (natural protein, human, UniProt Q9UKL6 1-214, looked up)
chain: MELAAGSFSEEQFWEACAELQQPALAGADWQLLVETSGISIYRLLDKKTGLYEYKVFGVLEDCSPTLLADIYMDSDYEKQWDQYVKELYEQECNGETVVYWEVKYPFPMSNRDYVYLRQRRDLDMEGRKIHVILARSTSMPQLGERSGVIRVKQYKQSLAIESDGKKGSKVFMYYFDNPGGQIPSWLINWAAKNGVPNFLKDMARACQNYLKKT
notes: source: Huh7, transfected, in cells
Turning to B2, in assay [3], the “percent decrease of the interaction relative to wild-type PC-TP” value was roughly 45%.

B3: PC-TP Y114R, split nano-luciferase (nano-PCA) fusion (natural protein, human, UniProt Q9UKL6 1-214, looked up)
chain: MELAAGSFSEEQFWEACAELQQPALAGADWQLLVETSGISIYRLLDKKTGLYEYKVFGVLEDCSPTLLADIYMDSDYRKQWDQYVKELYEQECNGETVVYWEVKYPFPMSNRDRVYLRQRRDLDMEGRKIHVILARSTSMPQLGERSGVIRVKQYKQSLAIESDGKKGSKVFMYYFDNPGGQIPSWLINWAAKNGVPNFLKDMARACQNYLKKT
notes: as for B2
Consider B3, for which, in assay [3], the “percent decrease of the interaction relative to wild-type PC-TP” value was roughly 45%.

B4: PC-TP R120H, split nano-luciferase (nano-PCA) fusion (natural protein, human, UniProt Q9UKL6 1-214, looked up)
chain: MELAAGSFSEEQFWEACAELQQPALAGADWQLLVETSGISIYRLLDKKTGLYEYKVFGVLEDCSPTLLADIYMDSDYRKQWDQYVKELYEQECNGETVVYWEVKYPFPMSNRDYVYLRQHRDLDMEGRKIHVILARSTSMPQLGERSGVIRVKQYKQSLAIESDGKKGSKVFMYYFDNPGGQIPSWLINWAAKNGVPNFLKDMARACQNYLKKT
notes: as for B2
Take B4: the “percent decrease of the interaction relative to wild-type PC-TP” value in assay [3] is roughly 45%.
